# Experimental data: US20240344124, “Quantum Dot-Enrichment of CRISPR-Associated (Cas) Proteins for Environmental RNA Enrichment” (The Government of the United States of America, as …, published 2024)
# T1: dLwaCas13a (LwaC2c2 R474A/R1046A double mutant); the text does not say whether the double or the quad mutant … (Leptotrichia wadei)
# T1 chain: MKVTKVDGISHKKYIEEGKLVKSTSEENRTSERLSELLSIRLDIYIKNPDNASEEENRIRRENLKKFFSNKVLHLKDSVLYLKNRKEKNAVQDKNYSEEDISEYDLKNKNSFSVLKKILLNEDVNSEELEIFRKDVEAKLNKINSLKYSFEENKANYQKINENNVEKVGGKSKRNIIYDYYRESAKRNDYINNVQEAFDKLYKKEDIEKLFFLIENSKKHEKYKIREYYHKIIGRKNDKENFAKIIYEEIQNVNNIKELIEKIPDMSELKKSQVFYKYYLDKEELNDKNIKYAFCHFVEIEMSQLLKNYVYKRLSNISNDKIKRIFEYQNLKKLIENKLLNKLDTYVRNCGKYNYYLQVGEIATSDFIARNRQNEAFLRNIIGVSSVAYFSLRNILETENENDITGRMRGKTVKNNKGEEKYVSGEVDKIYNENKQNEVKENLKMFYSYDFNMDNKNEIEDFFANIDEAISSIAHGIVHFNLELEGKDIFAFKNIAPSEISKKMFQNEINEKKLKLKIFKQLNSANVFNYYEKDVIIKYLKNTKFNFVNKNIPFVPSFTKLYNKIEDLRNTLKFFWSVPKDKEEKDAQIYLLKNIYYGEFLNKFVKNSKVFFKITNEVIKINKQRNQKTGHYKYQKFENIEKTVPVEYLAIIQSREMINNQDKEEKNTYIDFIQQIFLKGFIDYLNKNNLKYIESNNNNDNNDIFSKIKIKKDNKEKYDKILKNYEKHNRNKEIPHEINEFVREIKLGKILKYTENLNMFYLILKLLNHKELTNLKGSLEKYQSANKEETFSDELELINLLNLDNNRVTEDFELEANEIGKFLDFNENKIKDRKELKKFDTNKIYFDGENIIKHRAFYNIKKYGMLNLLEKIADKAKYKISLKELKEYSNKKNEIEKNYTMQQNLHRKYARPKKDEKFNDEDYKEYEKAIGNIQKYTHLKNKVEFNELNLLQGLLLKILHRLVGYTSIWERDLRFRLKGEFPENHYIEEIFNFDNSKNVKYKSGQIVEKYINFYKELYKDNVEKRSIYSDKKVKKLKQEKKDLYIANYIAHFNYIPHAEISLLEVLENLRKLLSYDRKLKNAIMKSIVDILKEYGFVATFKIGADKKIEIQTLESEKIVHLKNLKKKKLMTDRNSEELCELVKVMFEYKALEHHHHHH
# Molecular target: T1, dLwaCas13a (LwaC2c2 R474A/R1046A double …)
# Test: pulldown; […]; 50 mM Tris pH 8, NaCl, 10 mM MgCl2, 37 C; […]
# Conditions: tags: polyhistidine tag; GenScript
binder,measurement,value
cr7 crRNA ; shortened lcrV target RNA (237 nt) (ssRNA ; ssRNA) RNA 1: GGGGAUUUAGACUACCCCAAAAACGAAGGGGACUAAAACAAUAUCUAUAUUUUUAUCUUUGACUAAC RNA 2: AUUGAGGAUCUAGAAAAAGUUAGGGUGGAACAACUUACUGGUCAUGGUUCUUCAGUUUUAGAAGAAUUGGUUCAGUUAGUCAAAGAUAAAAAUAUAGAUAUUUCCAUUAAAUAUGAUCCCAGAAAAGAUUCGGAGGUUUUUGCCAAUAGAGUAAUUACUGAUGAUAUCGAAUUGCUCAAGAAAAUCCUAGCUUAUUUUCUACCCGAGGAUGCCAUUCUUAAAGGCGGUCAUUAUGAC,binding result,binds
